From patent publication US8993714B2, “Streptavidin macromolecular adaptor and complexes thereof” (Imiplex LLC, priority 2007, dated 2015)

Experiments:
[1] = Zarembinski et al. 1998; cited from earlier work
[2] = Binding of MJ0577 to ATP immobilized on a resin via the g-phosphate, analysis by PAGE; conditions: after dialysis against GuHCl/urea
Experimental: (§1) The structure of MJ0577 was determined in the context of a structural genomics project aimed at elucidating protein function through 3D structural studies. […] Because the nucleotide was not added to buffers used during purification and crystallization, the authors concluded that ATP was scavenged from the growth media. […] Because the purification protocol developed here includes heating and dialysis at pH 5.2 steps, we believed that it was possible that the protein would be isolated as the ATP-free form. To test this hypothesis, the affinity of purified MJ0577 for the nucleotide mimicking resin, Cibacron Blue, was tested following the procedure successfully applied in the purification of an MJ0577 structural relative, E. coli YnaF (Saveanu et al. 2002). […] MJ0577 was dialyzed overnight against 8 M guanidinium HCl (GuHCl) 0.2 M TRIS pH 8.2, 5 mM DTT, then dialyzed overnight against 8 M urea, and finally equilibrated to non-denaturing conditions by dialysis against 25 mM sodium phosphate buffer pH 7.6. In a separate experiment, MJ0577 was dialyzed overnight against 2 M GuHCl in 25 mM L-histidine pH 5.6, 2 M GuHCl in 25 mM CHES pH 9.8, and 2 M GuHCl in 25 mM sodium phosphate buffer pH 7.8, 20% DMSO. Half of each sample was then heated at 40° C. for one hour. […] Such results can enable the ready establishment of proper conditions for a biotin-ATP substituted SAMA.

[3] = Binding of purified MJ0577 to nucleotide mimicking resin Cibacron Blue; conditions: 25 mM sodium phosphate buffer pH 7.6
Experimental: as §1

B1: MJ0577: protein dimer isolated from the thermostable bacterium Methanococcus jannaschii, 162 residues, SEQ ID NO: 11; SAMA template (protein, listed as Methanococcus jannaschii)
chain: MSVMYKKILYPTDFSETAEIALKHVKAFKTLKAEEVILLHVIDEREIKKRDIFSLLLGVAGLNKSVEEFENELKNKLTEEAKNKMENIKKELEDVGFKVKDIIVVGIPHEEIVKIAEDEGVDIIIMGSHGKTNLKEILLGSVTENVIKKSNKPVLVVKRKNS
modifications: dimer
notes: SAMA template
What does the source list for B1?
thermostable to [1]: at least 80 °C; interaction with ATP resin [2]: essentially no interaction; binding to Cibacron Blue resin [3]: No binding was observed
